Biological target: T1, UNC-40 ECD (C. elegans, UniProt G5EF96 23-1082)
T1 sequence (looked up): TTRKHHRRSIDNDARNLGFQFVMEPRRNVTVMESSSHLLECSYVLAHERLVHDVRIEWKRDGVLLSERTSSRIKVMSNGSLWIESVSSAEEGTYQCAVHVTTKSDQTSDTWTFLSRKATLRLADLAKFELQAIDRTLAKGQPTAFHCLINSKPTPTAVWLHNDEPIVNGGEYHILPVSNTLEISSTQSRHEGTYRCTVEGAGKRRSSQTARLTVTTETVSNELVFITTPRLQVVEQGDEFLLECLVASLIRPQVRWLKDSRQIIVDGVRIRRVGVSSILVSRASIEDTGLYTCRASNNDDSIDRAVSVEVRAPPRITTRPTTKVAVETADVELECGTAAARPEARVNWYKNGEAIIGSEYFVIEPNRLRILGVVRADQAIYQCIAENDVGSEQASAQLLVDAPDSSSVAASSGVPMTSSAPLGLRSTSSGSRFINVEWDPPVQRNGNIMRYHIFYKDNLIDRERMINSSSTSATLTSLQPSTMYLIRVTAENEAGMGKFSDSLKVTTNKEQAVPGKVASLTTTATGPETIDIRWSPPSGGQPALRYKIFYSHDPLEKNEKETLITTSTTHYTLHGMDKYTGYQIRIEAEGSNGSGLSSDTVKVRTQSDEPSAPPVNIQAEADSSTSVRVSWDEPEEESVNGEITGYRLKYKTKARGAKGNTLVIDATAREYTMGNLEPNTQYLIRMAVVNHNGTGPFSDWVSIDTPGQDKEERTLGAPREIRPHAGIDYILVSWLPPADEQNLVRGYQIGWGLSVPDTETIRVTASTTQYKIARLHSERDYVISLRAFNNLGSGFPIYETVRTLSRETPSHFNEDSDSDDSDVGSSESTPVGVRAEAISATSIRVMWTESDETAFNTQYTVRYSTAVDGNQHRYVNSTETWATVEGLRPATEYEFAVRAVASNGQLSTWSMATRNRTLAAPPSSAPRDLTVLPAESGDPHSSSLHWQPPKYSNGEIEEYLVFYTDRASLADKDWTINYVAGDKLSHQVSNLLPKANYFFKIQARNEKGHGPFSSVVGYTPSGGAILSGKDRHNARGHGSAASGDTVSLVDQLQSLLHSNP
Test: SEC

binding result: binds
B1: UNC-6ΔC (ligand)
chain: not shown

— publication PMC10871540 (Science Advances, 2024)
